Earlier results as cited in PMC2888693.

Target: Tube DD (Drosophila melanogaster) (UniProt P22812)
UniProt P22812, sequence (P22812 27-152): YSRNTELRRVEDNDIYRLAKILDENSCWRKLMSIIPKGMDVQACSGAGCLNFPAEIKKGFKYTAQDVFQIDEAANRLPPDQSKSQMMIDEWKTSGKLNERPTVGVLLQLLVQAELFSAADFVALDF

Substance: Pelle DD (from UniProt Q05652)
- Kd: 500 nM
